From the DeepSol protein solubility set

Assay: soluble on expression in E. coli; label from the status in PepcDB or PDB records

| Sequence | soluble on expression in E. coli |
| --- | --- |
| MGSDKIHHHHHHMEKTMDRIYKIGGHCFALPDERLMEAVDGISGFKPFVWQPDLVSAKDVYEGAWLPDFTVWEGNGWGFPAFQRKSYGFGYEDVTGTFGVSGDSFLLELAPQGEPSLYLRTMGGTGRGICLYGNYSPRLLRFALWMGYGLMTVRKDTVALHGSCIVYKGKAVLFLGESGTGKSTHTRLWRENIAGSKLLNDDSPIVRYEEGGVWVYGSPWSGKTPCYKAERYPLAGCVRLSQAPYNKIRRLNTLQAYAALHPSAPPAFAYEEELYCGVCSLLEKMVSSIPVYHLECLPDAEAVKLVCRTLYGDGYEADSE | not soluble |
| NYGVDFSDIAGQSTSIRALEIAASGGHNIILYGPPGSGKTMLAKRLPTILPPLSYKEALEVSKIYSITGQFDNKNLVFKRPFRAPHHTSSKISLVGGGSKLFPGEISLSHNGVLFLDELLEFKRSSIEVLRQPLEDKVIRFSKSSGNVTYPANFMFISAMNLCPCGNYG | not soluble |
| MGSDKIHHHHHHMTLLNMSNVQIMDVVQALSLSIERGERVGLIGESGSGKTITAMSILRLIPSSGSIVFDGADIQGLSEKQMCALRGKRISMVFQEPMTALDPLMKVGTQISHAIRIHSSVSRAQARKKADALLHSVELDPELRSRYPHELSGGQRQRILIAMALAHDPDLLICDEPTTALDVTSQKAIVDLILRLVAERGTGLLFITHDLGLVARTCERVLVMREGRIIESGTVEDVLKNPREDYTAMLVQASTLAPAPQVALSDDEVLHIDNVTKKYRGTTAVEDVTLTVHRGERLGIVGGSGSGKTTLLKMISGLSSPTSGHINTEGSMRIVFQDPMQSLDPHMSIADIVSEPLGHRDLKAVERALEEVGLDAGMMNRLPHEFSGGQRQRISIARALVSSPDILLADEPVSALDVSVRAKVLALLDRLVSERHLTMLFVSHDLHVVRSLCTTVAVMREGKIVEYGPTEDVFNNPQHEYTKALIEAIPSL | not soluble |
| MGSSHHHHHHSSGLVPRGSHMLKFDVNTSAVQVLIEHIGNLDRAYEFAERCNEPAVWSQLAKAQLQKGMVKEAIDSYIKADDPSSYMEVVQAANTSGNWEELVKYLQMARKKARESYVETELIFALAKTNRLAELEEFINGPNNAHIQQVGDRCYDEKMYDAAKLLYNNVSNFGRLASTLVHLGEYQAAVDGARKANSTRTWKEVCFACVDGKEFRLAQMCGLHIVVHADELEELINYYQDRGYFEELITMLEAALGLERAHMGMFTELAILYSKFKPQKMREHLELFWSRVNIPKVLRAAEQAHLWAELVFLYDKYEEYDNAIITMMNHPTDAWKEGQFKDIITKVANVELYYRAIQFYLEFKPLLLNDLLMVLSPRLDHTRAVNYFSKVKQLPLVKPYLRSVQNHNNKSVNESLNNLFITEEDYQALRTSIDAYDNFDNISLAQRLEKHELIEFRRIAAYLFKGNNRWKQSVELCKKDSLYKDAMQYASESKDTELAEELLQWFLQEEKRECFGACLFTCYDLLRPDVVLETAWRHNIMDFAMPYFIQVMKEYLTKVDKLDASESLRKEEEQATETQPIVYGQPQLMLTAGPSVAVPPQAPFGYGYTAPAYGQPQPGFGYSM | soluble |
| MLCHTLISSFNNHIWRFLIMENKMNDNRVPRERVAILIDSGCDVTEELIRQYNMKLLRLHVIYPEKDYSDDLDISPQTVYERFPGEIPHTSTPSPQEVKDMADELKREGYTHVLAFAISSGLSGTYNTMCSVLNEEEELTSFVLDTRNISFGSGVLAVWAAQKLEEGMPYEELVRLLPGKVQDSKILYYMDTLTYLQKGGRIGLVTSIVGNILNLKPIISCNCEGVYYTVAKIRGSKQGMTKLLAEAKDFAGDGPVWFSLLNGNAAAASNEMLKRITEALPEGKHLLSKQIAASLAVHTGPGLLGIGILKNP | not soluble |
| MSLGILEQLENPKFKATKSEKTLIEYIKSDLDNIIYKSISIIAKESGVGEATITRFTKKLGFNGFQDFKVTLAKEISNKKNTSIINLHVHRDESVTETANKMLKSSINILEQTVKQIDLDLMCKCRDLIMNAKRVYFIGIGYSGIAATDINYKFMRIGFTTVPVTDSHTMVIMSSITNDDDVIVAISNSGTTKEVIKTVKQAKENGTKIITLTEDSDNPLRKLSDYELTYTSAETIFETGSISSKIPQIFLLDLLYTEVIKEMFSEAVEKKIKTTSAILNEGHHHHHH | soluble |
| MMTNPKVIILGGRFGGLQTAYELKRYLKGKIDIKLIERNRYIYFRPALPHVAIGLENPDDLRIDISEALSAKGIEYIQGTVTRIDPAKNTVEYNKEGAGPSKEKYDYLVIALGSHLATELITGFEKFGSSVCEADLALSMWNKLNAFKGGNITLGSAKFIQDNKNRPTNNPDAYAPLLESACEGPVYEMSIMLYDYFKAKGMLDKVKMTVYSPGKYLSDLSETNRATVAAMYKGMDIDIVDNFVLKEVTEKEVISEDGKRLPSDLSFILPPYMGQQMVKDAGLGDEAGFVLTDTNMKSVKYDNVYAVGDINALIVPKMAALAVKSARIAAANIANNLGNKVPIEVYDPKIVCIADDPYGKYAVAIVDSTAYGGNISEAVPSAANHLKKSLFTRYFLWSKGDLAMDKYLTSWLEHHHHHH | not soluble |
| MPFHLALGLSNCEQIYEPGGTIEGYVTFDLRESVKVKAIRISAEGLATTKWLLSESSKSSHGRSREVSYSAKVTYLDEEQMVWKPSEGHSKSSVFPGIHVYPFKFQIPIGVPPSFEGDHGNIRYHMKATVERPWKTNRSVTRYLTILPPKDLNKEVLASEETSSWKSKKIRIPKKGYVPGETISIETNIDNMSSRPILKTECYLIQQCRFLAYRYGISGPTDGRRASSLSENDRYLSRKRDEIKIVSVIHEMHIEPRTEHKAKMRLKIPCTCPTFDSTLIHVEYFVVVKLHVKCRMRNTVKAECPIIIGSKPLADEHVDPRTPTYQEVATFSALTHRSMMSVDEKLTPKYVYYPKYGKSRDDEADEPPSLTDLQLPPIDSLSDDD | not soluble |
| TQEDVVVTLSHQGYVKYQPLSEYEAQRRGGKGKSAARIKEEDFIDRLLVANTHDHILCFSSRGRVYSMKVYQLPEATRGARGRPIVNLLPLEQDERITAILPVTEFEEGVKVFMATANGTVKKTVLTEFNRLRTAGKVAIKLVDGDELIGVDLTSGEDEVMLFSAEGKVVRFKESSVRAMGCNTTGVRGIRLGEGDKVVSLIVPRGDGAILTATQNGYGKRTAVAEYPTKSRATKGVISIKVTERNGLVVGAVQVDDCDQIMMITDAGTLVRTRVSEISIVGRNTQGVILIRTAEDENVVGLQRVAE | soluble |
| GMTTQTATDFMEIVKGRRSIRNYDTNVKISKEEMTQILEEATLAPSSVNMQPWRFLVIDSEEGKATLAPLAKFNQVQVETSSAVIAVFGDMKAIDQLENIYDTAVEKGLMPQEVRDRQVPAIQGMYENVPASALKDSILIDSGLVSMQLMLVARAHGYDTNPIGGYEKDQIAEAFGMEKDRYVPVMLLSIGKAVDAGYPSVRLPINDIADWK | soluble |
| MSLSAHPVPHAPAAPVCLAPRPAVPPTAVTVPPGAWDCHAHVLGPADLYPMQAERSYTPPDSSAAQYAALLDTLGLRRGVLVQPSVYGTDNRLLAQAVARPEWRGIAVLDPAADTRQVAALHAAGVRGFRLNLLFPGGPGLDALERSAALVAPFGWHAQLLVDVRILPGIEHRLARLPVPVVFDHLGHFPYELGTDWPGFHALLRRVAAGRTYVKLSGSYRLSARASHIADVAPIAQALVREAPQRLVWGSDWPHVGRFQDMPATHALLDALALWCPDPAARRAILVDTPTQLYSEGHHHHHH | not soluble |
| MTNTAKILNFCRGNFAKQERNVADLDDGYARLSNMLLEAYSGADLTKRQFKVLLAILRKTYGWNKPMDRITDSQLSEITKLPVKRCNEAKLELVRMNIIKQQGGMFGPNKNISEWCIPQNEGKSPKTRDKTSLKLGDCYPSKQGDTKDTITKEKRKDYSSENSGESSDQPENDLSVVKPDAAIQSGSKWGTAEDLTAAEWMFDMVKTIAPSARKPNFAGWANDIRLMRERDGRNHRDMCVLFRWACQDNFWSGNVLSPAKLRDKWTQLEINRNKQQAGVTACKPKLDLTNTDWIYGVDL | not soluble |
| MGLYEKIVNKEEKISVIGLGYVGMPLAIAFAKYAQVIGFDVDKKKIEIYKSGIDPTKEIGNEAIKNTTVEFTSDETKLKEAKFHIVAVPTPINIDKTPDLTPVESASVIVGRNMARGSYVVYESTVYPGVTEDICIPILERESGLKCGVDFKVGYSPERINPGDKKHTLETIKKIVSAIDDESLDEIAKIYSLVIKAGVHKTSSIKVAEAAKVVENSQRDINIAFMNELAMVFDRMGIDTKEVIDAMNTKWNALGFYPGLVGGHCIGVDPYYFIYQAEKLGYHSQIILSGRKINDGMGEFIANTIIKKLIHVNKVVKKSKVVIFGITYKENCPDTRNSKVVDIIKGLNEYGIEPIVVDPQANREDTKQEYGIELMDIDDVKDADCLVFAVAHDEFKNMAWEQIEKFFKNIDNSEKVIIDVKGIFDKNKIEKLGYCYWRL | soluble |
| MSLDEIAVPILSIITLSSYQPDTIALVDDFSSVSYRNAIIHIETVSEQIASCVANSLTKRVMAYFAGSAEMVLAILGAQLSGAAYIPIEPKTPGSRIDAIADVAKPCMIMTDSQNRQGAQSIAERLGIPLVVLSLKKAGKTLDIFREGYREQPFTVERLTSSTPAVVFFTSGSTGTPKGVELSHLGYYRWFEGVQDLIQVKRGDRVALTTNHSFDLSLGELYLGLMSGATLYVPRQSTVRDPLSLVPWLDQHEITVFQSVPSLMRRILLFRESAGQGLETVRTIMFCGEPLEQQLVKKVKDSFPFSHTRILNLYGPVEASVQVTYCWAEEYLGSEDVIIPLGKPLKHVVVRLAEVDDTSHELQITGDHLALRYLDEKKTRESFINDEAEGTRFYRTGDLGRLNARGDLEYHGRVDDQVKINGYRIELGEIEKTIIDHFKATDCCVLIEKSEGEPSLVAFVVSPNDSVADLRRAVADHLPTYMIPRTVIFIESIPLNTNGKRDKPSLRAEYLKEGHHHHHH | not soluble |
| MGSDKIHHHHHHMATSTTSTPHDAVFKQFLCHPDTARDFLEIHLPSTLRQICNLNTLRLESGSFIEEDLRPHYSDILWSLETSEGEGYIYVVIEHQSTPDAHMAFRLMRYAMAAMQRHLEAGHKTLPLVVPMLFYHGNRSPYPFSLCWLDEFADPVMARKLYATAFPLVDITVVPDDEIMRHRRVALLELIQKHIRQRDLMGLVEQLVALLVKGYANDTQLQSLFNYMMHTGDAARFNTFIRQVAMRIPQHKEKIMTIADRLRQEGHRNGLQQGKQEGQRLAALRIARSMLNDGFDRDTVLRVTGLAPADLASENH | not soluble |
| MGSDKIHHHHHHMRVKHFELLTDEGKTFTHVDLYGKYTILFFFPKAGTSGCTREAVEFSRENFEKAQVVGISRDSVEALKRFKEKNDLKVTLLSDPEGILHEFFNVLENGKTVRSTFLIDRWGFVRKEWRRVKVEGHVQEVKEALDRLIEEDLSLNKHIEWRRARRALKKDRVPREELELLIKAAHLAPSCMNNQPWRFVVVDEEELLKKIHEALPGGNYWMKNAPALIAVHSKKDFDCALPDNRDYFLFDTGLAVGNLLVQATQMGLVAHPVAGYDPVKVKEILKIPEDHVLITLIAVGYLGDESELSEKHRELERSERVRKELSEIVRWNL | not soluble |
| MRTQWPSPAKLNLFLYITGQRADGYHTLQTLFQFLDYGDTISIELRDDGDIRLLTPVEGVEHEDNLIVRAARLLMKTAADSGRLPTGSGANISIDKRLPMGGGLGGGSSNAATVLVALNHLWQCGLSMDELAEMGLTLGADVPVFVRGHAAFAEGVGEILTPVDPPEKWYLVAHPGVSIPTPVIFKDPELPRNTPKRSIETLLKCEFSNDCEVIARKRFREVDAVLSWLLEYAPSRLTGTGACVFAEFDTESEARQVLEQAPEWLNGFVAKGVNLSPLHRAML | soluble |
